From US10716830B2, “ERBB4 activator screening assay” (Children's Hospital Los Angeles, priority 2011, dated 2020)

Tests used:
[1] = system: YAMC-B4 cells; experiment: Cytokine (TNF plus IFN-γ)-induced apoptosis in cultured colon epithelial cells; type: cell-based, mouse; settings: NRG4 100 ng/ml, TNF 100 ng/ml plus IFN-γ 150 U/ml, 6 h, p<0.03
Source text: (§1) Conditionally immortalized, non-transformed young adult mouse colon (YAMC) epithelial cells were provided by Dr. Robert Whitehead (Whitehead, R. H., VanEeden, P. E., Noble, M. D., Ataliotis, P., and Jat, P. S. (1993) Proc Natl Acad Sci USA 90, 587-591). These cells express low levels of endogenous ErbB4; YAMC-B4 cells expressing a human ErbB4 construct were generated as previously described (Frey, M. R., Edelblum, K. L., Mullane, M. T., Liang, D., and Polk, D. B. (2009) Gastroenterology 136, 217-226). […]
Cultured mouse colonic epithelial cells expressing ErbB4 (YAMC-B4) cells were exposed to TNF (100 ng/ml) plus interferon (IFN)-γ (150 units/ml), with or without NRG4 (100 ng/ml). After 6 h, the cells were fixed and apoptosis was assessed by immunofluorescence analysis for cleaved caspase-3. When the YAMC-B4 cells were given 100 ng/ml NRG4, cells were protected from apoptosis induced by the 6 h exposure to the cytokine cocktail containing TNF (100 ng/ml) and IFN-γ (150 U/ml), as measured by immunofluorescence analysis for cleaved caspase-3 (FIG. 1B; 2.7-fold decrease with cytokines plus NRG4 vs. cytokines alone, p<0.03).

[2] = system: EGFR, ErbB2, ErbB3, and ErbB4; experiment: ErbB receptor phosphorylation by western blot with phospho-specific antibodies; type: cell-based, mouse; settings: YAMC-B4 cells (human ErbB4 construct); 10 min; HRG-1β 100 ng/ml, NRG4, EGF 10 ng/ml
Source text: as §1
(§2) Cell lysates were extracted in modified RIPA buffer as previously described (Frey, M. R., Dise, R. S., Edelblum, K. L., and Polk, D. B. (2006) Embo J 25, 5683-5692), cleared by centrifugation, and boiled in Laemmli sample buffer. Samples were separated on SDS-polyacrylamide gels (6-10% as appropriate), blotted on PVDF membranes, and subjected to quantitative immunoblot using the Li-Cor Odyssey infrared detection system. Equal loading was monitored by immunoblots for actin and at least one additional protein.
Phosphorylation of EGFR, ErbB2, ErbB3, and ErbB4 was determined by western blot analysis of cell lysates using phospho-specific antibodies. […]

[3] = system: colon epithelial cells; experiment: Cytokine-induced colon epithelial apoptosis in vivo; set-up: species or system mouse; settings: C57Bl/6 mice, NRG4 100 μg/kg i.p., TNF 250 μg/kg plus IFN-γ 250 U/g, 24 h
Protocol: All animal use was approved and monitored by the Children's Hospital Los Angeles Institutional Animal Care and Use Committee. […] Cytokines, growth factors, and inhibitors were given by intraperitoneal injection. 24 h after injections, mice were sacrificed and colons collected either for fixation and embedding or for epithelial lysates. For the latter, colons were incubated in Cell Recovery Solution (BD Biosciences, San Jose, Calif.) for 1 h at 4° C.; crypts were released by vigorous shaking and collected by centrifugation, similar to as previously described (Whitehead, R. H., and Robinson, P. S. (2009) American journal of physiology. Gastrointestinal and liver physiology 296, G455-460). Collected crypts were lysed and processed similar to cultured cells as below. […]
For apoptosis analysis in vivo, mice were injected i.p. with PBS/vehicle, TNF (250 μg/kg) plus IFN-γ (250 units/g), NRG4 (100 μg/kg), or NRG4 plus TNF and IFN-γ. […] Apoptosis was detected by in situ oligo ligation (ISOL; EMD Millipore, Billerica, Mass.) staining for DNA fragmentation on sections of paraffin-embedded tissue, and by cleaved caspase-3 western blot on homogenates.
24 hours after injections, colons were harvested. Apoptosis assessed by Western blot analysis for cleaved caspase-3 on isolated epithelial cells determined that NRG4 blocked cytokine-induced apoptosis in vivo (FIG. 3A, B; 3.6-fold decrease, p=0.012).

[4] = system: YAMC-B4 cells; experiment: EdU proliferation assay; type: cell-based, mouse; settings: 24 h stimulation
Protocol: (§3) Proliferative index in fixed colon specimens was assessed by immunohistochemical stain for Ki-67. In vitro, cells were exposed to vehicle or growth factors for 24 h, then labeled with 5-ethynyl-2-deoxyuridine (EdU) for 2 h and fixed. Nuclei were marked with DAPI, and incorporated EdU was detected using a Click-iT EdU kit (Invitrogen).
(§4) Most ErbB ligands stimulate multiple cellular processes, including proliferation and migration, in colon epithelial cells (Frey, M. R., Golovin, A., and Polk, D. B. (2004) J Biol Chem 279, 44513-44521). To determine if NRG4 is similarly broad in its cellular effects, we subjected YAMC-B4 cells to proliferation assays in the presence of NRG4. […] In vivo, the number of Ki67-positive nuclei per crypt in PBS vs. NRG4-injected mice was not altered 24 h post-injection (FIG. 4B).

[5] = system: colon crypts; experiment: Ki-67 proliferative index in colon in vivo; set-up: species or system mouse; settings: 24 h post-injection
Protocol: as §3, §4

[6] = system: YAMC-B4 cells; experiment: Cell migration/restitution (modified scratch) assay; type: cell-based, mouse; settings: 8 h
Protocol: Cells grown on fibronectin-coated plates were subjected to multiple circular wounds with a rotating silicone probe as previously described (Corredor, J., Yan, F., Shen, C. C., Tong, W., John, S. K., Wilson, G., Whitehead, R., and Polk, D. B. (2003) American journal of physiology. Cell physiology 284, C953-961). Cultures were photographed immediately and 8 h after wounding; % closure was determined by measuring wounds in Image.
To test the potential effect of NRG4-ErbB4 signaling on cell motility, we used a modified scratch assay for restitution/migration (Corredor, J., Yan, F., Shen, C. C., Tong, W., John, S. K., Wilson, G., Whitehead, R., and Polk, D. B. (2003) American journal of physiology. Cell physiology 284, C953-961). Over an 8 h period, NRG4 had no effect on the rate at which YAMC-B4 cells moved into the denuded area of a culture plate (FIG. 4C), while in contrast EGF caused a 54% increase in migration over control.

[7] = Dextran sodium sulfate-induced acute murine colitis; type: in vivo, mouse; settings: C57/BL6 mice, NRG4 100 μg/kg injected daily vs PBS
Protocol: 6-8 week-old male C57/BL6 mice were given 3% DSS in drinking water for 7 days and injected daily with either PBS or NRG4 (100 μg/kg). Weight-loss was monitored over the course of the experiment (FIG. 4D(i)). On day 7, mice were sacrificed; colons were excised, rolled and fixed. H&E sections were scored by a pathologist blind to the experimental conditions using a scoring system adapted from that of Dielman et al. (Dieleman, L. A., et al., Chronic experimental colitis induced by dextran sulphate sodium (DSS) is characterized by Th1 and Th2 cytokines. Clinical and experimental immunology, 1998. 114(3): p. 385-91) (FIG. 4D(ii)).

[8] = system: Akt; experiment: Akt phosphorylation in whole cell lysates by western blot; type: cell-based, mouse; settings: YAMC-B4 cells; NRG4 100 ng/ml, 10 min
Source text: as §2
(§5) To identify signaling pathways which could be involved in NRG4-stimulated cell survival, we exposed YAMC-B4 cells to NRG4 or EGF and prepared whole cell lysates for western blot analysis. […] Furthermore, COX-2 expression, which is induced by either HRG-1β or EGF after 6 h exposure, and is required for cell survival induced by ErbB4-EGFR dimers (Frey, M. R., Hilliard, V. C., Mullane, M. T., and Polk, D. B. (2010) Laboratory Investigation 90, 1415-1424), was not induced by NRG4. Thus, NRG4 promotes cell survival through pathways at least partly distinct from those activated by other ligands.

[9] = system: ERK MAPK; experiment: ERK MAPK phosphorylation in whole cell lysates by western blot; type: cell-based, mouse; settings: YAMC-B4 cells; NRG4 100 ng/ml, 10 min
Source text: as §2, §5

[10] = system: COX-2; experiment: COX-2 expression in YAMC-B4 cells; type: cell-based, mouse; settings: 6 h exposure
Protocol: as §5

[11] = system: Akt; experiment: Akt phosphorylation in colon epithelium of injected mice; type: in vivo, mouse; settings: mice injected with NRG4, with or without TNF plus IFN-γ; 24 h
Protocol: All animal use was approved and monitored by the Children's Hospital Los Angeles Institutional Animal Care and Use Committee. […] Cytokines, growth factors, and inhibitors were given by intraperitoneal injection. 24 h after injections, mice were sacrificed and colons collected either for fixation and embedding or for epithelial lysates. For the latter, colons were incubated in Cell Recovery Solution (BD Biosciences, San Jose, Calif.) for 1 h at 4° C.; crypts were released by vigorous shaking and collected by centrifugation, similar to as previously described (Whitehead, R. H., and Robinson, P. S. (2009) American journal of physiology. Gastrointestinal and liver physiology 296, G455-460). Collected crypts were lysed and processed similar to cultured cells as below. For murine colitis, IL-10^−/− mice on C57Bl/6 background were maintained unchallenged until 32-36 weeks of age, at which point knockout mice but not wild-type animals have extensive inflammatory cytokine-driven colitis (Kuhn, R., Lohler, J., Rennick, D., Rajewsky, K., and Muller, W. (1993) Cell 75, 263-274).
Tissues and cells were fixed with 4% paraformaldehyde (Electron Microscopy Sciences, Hatfield, Pa.). […] For immunofluorescence, slides were mounted with Vectashield medium containing DAPI (Vector Laboratories, Burlingame, Calif.). […]

[12] = system: rat intestinal epithelial cells; experiment: Cronobacter sakazakii-induced apoptosis in cultured intestinal epithelial cells; type: cell-based
Source text: NRG4 inhibits CS-induced cell death.

[13] = Experimental necrotizing enterocolitis (NEC) model

B1: Neuregulin-4 (protein, UniProt Q8WWG1 1-62, looked up)
extracellular domain: MPTDHEEPCGPSHKSFCLNGGLCYVIPTIPSPFCRCVENYTGARCEEVFLPGSSIQTKSNLF
modifications: ectodomain
notes: ErbB4-specific ligand
Question: With B1 as the molecule, how does the “decrease in apoptosis (cleaved caspase-3 immunofluorescence), cytokines plus NRG4 vs. cytokines alone” value [1] read?
Answer: 2.7 fold

Question: What about the “phosphorylation of EGFR, ErbB2, ErbB3, and ErbB4” value [2] of the same molecule?
Answer: activated only ErbB4

Question: And the “decrease in apoptosis, ISOL staining on fixed colon sections” value ([3]; p<0.0001)?
Answer: 3.1 fold

Question: What about the “decrease in cytokine-induced apoptosis, cleaved caspase-3 western blot on isolated epithelial cells” value ([3]; p=0.012) of the same molecule?
Answer: 3.6 fold

Question: What about the “cellular uptake of EdU (proliferation) vs. control, in words” value [4] of the same molecule?
Answer: not different from control

Question: What about the “number of Ki67-positive nuclei per crypt, PBS vs. NRG4-injected mice” value [5] of the same molecule?
Answer: not altered

Question: What about the “rate at which cells moved into the denuded area (migration), in words” value [6] of the same molecule?
Answer: no effect

Question: What about the colon shortening ([7]; 3% DSS 7 days) of the same molecule?
Answer: reduces

Question: And the “histologically detectable colonic damage” value ([7]; 3% DSS 7 days, blinded H&E score)?
Answer: reduces

Question: What about the weight loss ([7]; 3% DSS in drinking water 7 days) of the same molecule?
Answer: reduces

Question: And the “phosphorylation of Akt” value [8]?
Answer: resulted in phosphorylation of Akt

Question: And the “phosphorylation of ERK MAPK” value [9]?
Answer: not ERK MAPK

Question: And the COX-2 expression [10]?
Answer: not induced

Question: What about the “Akt phosphorylation in colon epithelial cells versus controls (western blot, immunofluorescence)” value [11] of the same molecule?
Answer: increased Akt phosphorylation

Question: What about the “Cronobacter sakazakii induced apoptosis” value [12] of the same molecule?
Answer: attenuates

Question: And the “protection of the small intestine” value ([13]; formula feeding/hypoxia model of necrotizing enterocolitis)?
Answer: protective

Question: And the “survival of rat pups” value ([13]; hypoxia/hypothermia model of NEC in rat pups, given by gavage with each feed)?
Answer: survive longer
